Test results: patent publication US20240043506A1 (GARVAN INSTITUTE OF MEDICAL RESEARCH, published 2024)

B1: O4G1 (antibody, V domains shown)
VH: EVQLLESGGGLVQPGGSLRLSCAASGFRFDYEDMGWVRQAPGKGLEWVSSIDSHGASTYYADSVKGRFTISRDNSKNTLYLQMNSLRAEDTAVYYCAKYSHSVSYGPFDYWGQGTLVTVSS
VL: DIQMTQSPSSLSASVGDRVTITCRASQYIYDDLNWYQQKPGKAPKLLIYSASSLQSGVPSRFSGSGSGTDFTLTISSLQPEDFATYYCQQTNTYPQTFGQGTKVEIK
B2: O4C12 (antibody, V domains shown)
VH: EVQLLESGGGLVQPGGSLRLSCAASGFRISDEDMGWVRQAPGKGLEWVSYIDNAGASTYYADSVKGRFTISRDNSKNTLYLQMNSLRAEDTAVYYCAKQINQGEGFDYWGQGTLVTVSS
VL: DIQMTQSPSSLSASVGDRVTITCRASQSISSYLNWYQQKPGKAPKLLIYYASNLQSGVPSRFSGSGSGTDFTLTISSLQPEDFATYYCQQGLGMPITFGQGTKVEIK

Target: SARS-CoV-2 S protein RBD (residues 319-541 of the S protein), soluble, with C-terminal Avitag and His tag (SARS-CoV-2, UniProt P0DTC2 319-541)

Binder | Kd
B1 | 19 nM
B2 | 23 nM
